Measured values from patent US20260116991A1 (HAINAN SIMCERE ZAIMING PHARMACEUTICAL, published 2026).
Numbering of substitutions follows the chain as printed.

B1: F1.145.22 (antibody, human IgG1, kappa, V domains shown)
VH: QVQLQQSGTDLARPGASVKLSCKASGYTFTSFGISWVKQRTGQGLEWIGEIYPRSGSPYYNEKFTGKATLTADKSSSTAYMELRSLTSEDSAVYFCAKDFGSSYVFDYWGQGTALTVSS
VL: DIQMTQSPASLSASVGETVTITCRASENIYSYLTWYQQKQGKSPQLLVYNAKTLAEGVPSRFSGSGSGTQFSLKINSLQPEDFGTYYCQHHYGTPPTFGTGTKLDLKR
notes: Human-murine chimeric antibody
B2: F1.136.7 (antibody, human IgG1, kappa, V domains shown)
VH: EVQLQQSGPVMVKPGPSVKISCQTSGFTFTDYYIHWVKQSHGKSLEWIGLVFPYDGGTNYNQKFKDKATLTLDTSSSTAYMELNSLTSEDSAVYYCARAGGFSYALNYWGQGTSVTVSS
VL: DIQMTQSPSSLSASLGGKVTITCKASQDINNYIAWYQHKPGKGPRLLIHFTSTLQPGIPSRFSGSGSGRDYSFSISNLEPEDIATYYCLQYDNLLLTFGAGTKLELKR
notes: as for B1
B3: F1.118.4 (antibody, human IgG1, kappa, V domains shown)
VH: QVQLQQSGAELAKPGASVKLSCKASGYSFTSYWIHWVKQRPGQGLEWIGYINPSSGYTKYNQKFKDKATLTADKSSSTAYMQLSSLTYEDSAVYYCARFGSSSFYFDYWGQGTTLTVSS
VL: DIVLTQSPASLAVSLGQRATISCRASQSVSSSSYSYMHWYQQKPGQPPKLLIKYASNLDSGVPARFSGSGSGTDFTLNIHPVEEEDTATYYCQHSWEIPAFGGGTKLEIKR
notes: as for B1
B4: F1.111.11 (antibody, human IgG1, kappa, V domains shown)
VH: EVQLQQSGPELVKPGASVKISCKASGYTFTDYYMNWVKQSHGKSLEWIGDIYPNNGDTTYNQRFKGKATLTVDKSSSTAYMELRSLASEDSAVYYCACPYNNPFGYWGQGTLVTVSA
VL: DVVMTQTPLSLPVSLGDQASISCRSSQSLVHSNGNTYLHWYLQKPGQSPKLLIYKVSNRFSGVPDRFSGSGSGTDFTLKISRVEAEDLGVYFCSQSTHVPWTFGGGTKLEIKR
notes: as for B1
B5: F3.38.7 (antibody, human IgG1, kappa, V domains shown)
VH: QVQLQQSGAELVRPGASVKLSCKASGYTFTDYEIHWVKQTPVLGLEWIGAIDPKTGNTAYNQKFMGKATLTADKSSTTAYMDLRSLTSEDSAVYYCTRYFSFAYWGQGTLVTVSA
VL: B4 VL with V3L, S28T, L29F, H39Q, F92Y, S94F, S96G, T97S, W101Y, G105S
notes: as for B1
B6: F1.115.8 (antibody, human IgG1, kappa, V domains shown)
VH: EVQLQQSGPELVKPGASVKMSCKASGYTFTEYYMHWVKQSHGKSLEWIGYIYPNNGGNGYNQKFKGKATLTVDKSSSTAYMGLRSLTSEDSAVYYCVRGYYSNWYFDVWGTGTTVTVSS
VL: B4 VL with V3L, L29I, N35K, H39E, F92Y, S94F, S96G, T97S, W101F, G105S
notes: as for B1
B7: F1.120.16 (antibody, human IgG1, kappa, V domains shown)
VH: EFQLQQSGPELVKPGASVKISCKASGYSFTDYNMNWVKQSNGKSLEWIGLIHPKFSVTSYNRKFKGKATLTVDQSSSTAYMQLNSLTSEDSAVYYCARWAGDYFDYWGQGTTLTVSS
VL: DIVLTQSPATLSVTPGDSVSLSCRASQSISNNLHWYQQKSHESPRLLIKYASQSISGIPSRFSGSGSGTDFTLTINSVETEDFGMYFCQQSNSWPQTFGGGTKLEIKR
notes: as for B1
B8: F2.154.1 (antibody, human IgG1, kappa, V domains shown)
VH: QVQLQQSGAELVRPGASVKLSCKASGYRFTDYEMHWVKQTPVHGLEWIGTIDPETGNTAYTQKFMDKATLTADKSSSTAYMELRSLTSEDSAVYYCTRGYSFTYWGQGTLATVSA
VL: DVLMTQTPLSLPVSLGDQASISCRSSQNIVHSNGNTYLQWYLQKPGQSPKLLIFKVSNRFSGVPDRFSGSGSGTDFTLKISRVEAEDLGVYYCFQGSHVPFTFGTGTKLEIKR
notes: as for B1
B9: F1.110.24 (antibody, human IgG1, kappa, V domains shown)
VH: EVKLVESGGGLVQPGGSLKLSCAASGFTFSDFYMYWVRQTPEKRLEWVAFISNGGGSTYYPDTVKGRFTISRDNVKNTLYLQMSRLKSEDTAMYYCARPDTSWFAYWGQGSLVTVSA
VL: DIQMTQTTSSLSASLGDRVTISCRASQDIDNYLNWYQQKPDGTVKVLISYTSRLHSGVPSRFSGSGSGTDYSLTISNLEQEDIATYFCQQGNTLPWTFGGGTKLEIKR
notes: as for B1
B10: F2.55.11 (antibody, human IgG1, kappa, V domains shown)
VH: EVKLVESGGGLVKPGGSLKLSCAASGLTFSTCTMSWVRQTPAKRLEWVATISSGGGNTYYPDSVKGRFTISRDNARNTLYLQMSSLRSEDTAMYYCVRLYYDGSPYAMDYWGQGTSVTVSS
VL: B9 VL with D30S, Y32H, V46L, S49Y, G91D, N92S, T93K, L94P, W96P, G100S
notes: as for B1
B11: F1.92.17 (antibody, human IgG1, kappa, V domains shown)
VH: EVQLQQSGPELVKPGASVKMSCKASGYTFTDYNMHWVRQSHGKSLEWIGYINPNNGDTIYNQNFKGKATLTVNKSSSTAYMELRSLTSEDSAVYYCSRTITYYYSMDYWGPGTSVTVSS
VL: QIVLTQSPALMSASPGEKVTMTCSASSSVSYMYWYQQKPRSSPKPWIYLTSNLASGVPARFSGSGSGTSYSLTISSMEAEDAATYYCQQWSSNPLTFGAGTKLELKR
notes: as for B1
B12: F1.83.6 (antibody, human IgG1, kappa, V domains shown)
VH: QVQLQQSGPELVKPGASVKISCKASGYAFSSSWMNWVKQRPGKGLEWIGRIYPGDGDTNYNGRFKGKATLTVDKSSSTAYMQLSSLTSEDSAVYFCARGGVFTMALDHWGQGTTLTVSS
VL: DIQMTQSPSSLSASLGGKVTITCKASQDINKYIAWYQHKPGKGPRLLIHYTSTLQPGIPSRFSGSGSGRDYSFSISNLEPEDIATYYCLQYDNLFTFGGGTKLEIKR
notes: as for B1

The binders below were run against T1, human GPC3-His protein (human, UniProt P51654 25-559) (assay: SPR, antibody captured on Protein A chip, human GPC3-His analyte;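 note: measured at 25 °C flow cell, human GPC3-His injected at five concentrations up to 200 nM, 240 s association, up to 600 s dissociation, double-referenced, fitted to Langmuir 1:1 model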).
T1 construct: also called human GPC3 protein; not shown: His tag

Binder	Kd [nM]	koff [s⁻¹]	kon [M⁻¹ s⁻¹]
B1	0.754	0.000164	218000
B2	0.837	7.03e-05	84100
B3	0.472	0.000118	251000
B4	6.75	0.000445	65800
B5	0.997	0.000361	362000
B6	1.4	0.00115	820000
B7	8.03	0.000629	78400
B8	1.21	0.000563	466000
B9	2.5	0.000362	145000
B10	7.77	0.000443	57000
B11	7.46	0.00017	22800
B12	5.88	0.000493	83900

Each binder was assayed against T2, monkey GPC3-His protein (monkey) (assay: SPR, antibody captured on Protein A chip, monkey GPC3-His analyte;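 note: run at 25 °C with 240 s association and up to 600 s dissociation, double-referenced, kinetics fitted to a 1:1 Langmuir binding model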).
T2 construct: Bought recombinant protein; also called monkey GPC3 protein
Experimental: The flow cell was set at 25° C. The sample block was set at 16° C. Both were pretreated with the running buffer. In each cycle, first, the antibody to be tested was captured using the Protein A chip, and then a single concentration of GPC3 antigen protein was injected. […] The association was determined by injecting different concentrations of human GPC3-His in the solution and maintaining for 240 s, wherein the flow rate was 30 μL/min, and the protein was diluted at a 1:1 dilution ratio from 200 nM to obtain 5 concentrations in total. The dissociation phase was monitored for up to 600 s and triggered by switching from the sample solution to the running buffer. The surface was regenerated by washing with 10 mM glycine solution (pH 1.5) at a flow rate of 30 μL/min for 30 s. The difference in bulk refractive index was corrected by subtracting the responses obtained from the goat anti-human Fc surface. Blank injections (double reference) were also subtracted. To calculate the apparent KD and other kinetic parameters, the Langmuir 1:1 model was used.

Binder	Kd [nM]	koff [s⁻¹]	kon [M⁻¹ s⁻¹]
B1	0.525	0.000164	311000
B2	0.183	2.88e-05	158000
B3	0.226	0.000102	453000
B4	4.67	0.000447	95800
B5	0.725	0.000386	532000
B6	1.05	0.00145	1.38e+06
B7	4.44	0.000639	144000
B8	0.706	0.000504	713000
B9	1.38	0.000342	248000
B10	5.24	0.000434	82800
B11	5.07	0.000139	27400
B12	3.4	0.000503	148000

Each binder was assayed against T2, monkey GPC3-His protein (assay: ELISA, monkey GPC3-His coated;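 note: Plate-coated antigen at 1 µg/mL, antibody binding 2 h at 37 °C, detected with HRP-labeled secondary antibody and TMB, absorbance at 450 nm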).

Binder	OD450 at 0.0001 nM [OD450]	OD450 at 0.001 nM [OD450]	OD450 at 0.01 nM [OD450]	OD450 at 0.1 nM [OD450]	OD450 at 1 nM [OD450]	OD450 at 10 nM [OD450]	OD450 at 100 nM [OD450]
B1	0.05	0.07	0.25	1.23	2.17	2.39	2.4
B2	0.05	0.05	0.1	0.62	1.33	1.96	1.96
B3	0.05	0.08	0.28	1.43	2.21	2.32	2.14
B4	0.06	0.11	0.53	1.91	2.57	2.62	2.66
B5	0.06	0.1	0.42	1.69	2.37	2.58	3.01
B6	0.05	0.07	0.27	1.33	2.14	2.36	2.26
B7	0.07	0.07	0.26	1.11	1.91	2.21	2.14
B8	0.05	0.1	0.46	1.69	2.38	2.49	2.24
B9	0.05	0.05	0.06	0.29	0.31	0.47	0.41
B10	0.05	0.1	0.49	1.76	2.3	2.54	2.23
B11	0.05	0.05	0.06	0.15	0.64	0.62	0.58
B12	0.05	0.05	0.08	0.43	0.62	0.32	0.55

These binders were tested against T3, monkey GPC3 on HEK293T-monkey GPC3 cells (monkey) (assay: FACS on HEK293T-monkey GPC3 cells;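 note: flow cytometry binding of test antibodies to the cells, read as mean fluorescence intensity, with half-maximal concentration taken from fitted curves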).
T3 construct: whole, on cells
Experimental: The desired cells were expanded to a logarithmic growth phase in a T-75 cell culture flask, the medium was removed by pipetting, and the cells were washed twice with a PBS buffer, and digested with trypsin. Then a complete medium was added to stop the digestion, and the cells were blown into a single cell suspension. After counting, the cells were centrifuged, and the cell pellet was resuspended with an FACS buffer (PBS+2% fetal bovine serum) to 2×10⁶ cells/mL. The cell resuspension solution was added to a 96-well FACS reaction plate at 50 μl/well, and a chimeric antibody sample to be tested was added at 50 μl/well for incubation at 4° C. for 1 h. […] After the plate was centrifuged and washed 3 times with a PBS buffer, 100 μl of the resulting solution was assayed and analyzed by FACS (FACS Canto™, purchased from BD Biosciences). Data analysis was performed by software (FlowJo) to obtain the mean fluorescence intensity (MFI) of the cells. Then, analysis was performed by software (GraphPad Prism8), data were fitted, and EC₅₀ values were calculated.

Binder	EC50 [nM]	Max MFI [MFI]
B1	0.69	6050
B2	1.94	6480
B3	0.32	6220
B4	0.42	4450
B5	0.85	110000
B6	0.33	6390
B7	0.25	5540
B8	0.41	12400
B9	0.42	5560
B10	0.31	3530
B11	2.26	5520
B12	0.53	5880
